Assays:
FLAG-HA-Atoh1 [1] = target: FLAG-HA-Atoh1 (UniProt Q92858); assay: anti-HA IP of FLAG-HA-Atoh1 293T lysate, LC-MS/MS, ComPASS
FLAG-HA-Atoh1 [2] = target: FLAG-HA-Atoh1 (UniProt Q92858); assay: MS of 450 kDa Coomassie band from FLAG-HA-Atoh1 IP
FLAG-HA-Atoh1 [3] = target: FLAG-HA-Atoh1 (UniProt Q92858)

Row | Substance | D^N Score (FLAG-HA-Atoh1 [1]) | Z score (FLAG-HA-Atoh1 [1]) | Total peptide (FLAG-HA-Atoh1 [2]) | Unique peptide (FLAG-HA-Atoh1 [2]) | other results
1 | YARS2 (from UniProt Q9Y2Z4 17-477) | 1.41 | 5.71 |  |  | 
2 | MYCBP2 (from UniProt O75592 1-4678) (enzyme) |  |  | 51 | 47 | 
3 | PLEC (from UniProt Q15149 1-4684) |  |  | 17 | 16 | 
4 | TUBA1C (from UniProt Q9BQE3 1-449) | 1.39 | 2.88 |  |  | 
5 | FHL3 (from UniProt Q13643 2-280) | 1 | 5.16 |  |  | 
6 | TCF12 (from UniProt Q99081 1-682) | 2.45 | 5.71 |  |  | 
7 | RNF213 (from UniProt Q63HN8 1-5207) (enzyme) |  |  | 32 | 30 | 
8 | ACOX1 (from UniProt Q15067 1-660) | 1.41 | 5.71 |  |  | 
9 | FLNC (from UniProt Q14315 1-2725) | 1.15 | 5.21 |  |  | 
10 | SACS (from UniProt Q9NZJ4 1-4579) |  |  | 12 | 12 | 
11 | MGA (from UniProt Q8IWI9 1-3065) |  |  | 29 | 27 | 
12 | ATP2A1 (from UniProt O14983 1-1001) | 1.41 | 5.71 |  |  | 
13 | SRRM2 (from UniProt Q9UQ35 1-2752) |  |  | 53 | 38 | 
14 | GFAP (from UniProt P14136 1-432) | 2.45 | 5.71 |  |  | 
15 | ENAH (from UniProt Q8N8S7 1-591) | 1.41 | 5.71 |  |  | 
16 | CTPS2 (from UniProt Q9NRF8 1-586) | 2.45 | 5.6 |  |  | 
17 | USP11 (from UniProt P51784 1-963) (enzyme) | 1.41 | 5.42 |  |  | 
18 | USP47 (from UniProt Q96K76 1-1375) (enzyme) | 2 | 5.54 |  |  | 
19 | SLC3A2 (from UniProt P08195 2-529) | 1.41 | 5.71 |  |  | 
20 | Myc-Huwe1 C4341A |  |  |  |  | wild-type and K48 poly-ubiquitylated Atoh1 (FLAG-Atoh1): The resulting decrease in both wild-type and K48 poly-ubiquitylated Atoh1
21 | TRRAP (from UniProt Q9Y4A5 2-3859) |  |  | 12 | 12 | 

Row | Substance | D^N Score (FLAG-HA-Atoh1 [1]) | Z score (FLAG-HA-Atoh1 [1]) | Total peptide (FLAG-HA-Atoh1 [2]) | Unique peptide (FLAG-HA-Atoh1 [2]) | other results
22 | EIF2C3 (from UniProt Q9H9G7 1-860) | 1 | 5.16 |  |  | 
23 | EIF2C2 (from UniProt Q9UKV8 1-859) | 3.16 | 5.72 |  |  | 
24 | PRDX4 (from UniProt Q13162 38-271) | 1.23 | 4.6 |  |  | 
25 | MACF1 (from UniProt Q9UPN3 1-7388) |  |  | 51 | 50 | 
26 | BCKDHA (from UniProt P12694 46-445) | 2 | 5.54 |  |  | 
27 | SEC23B (from UniProt Q15437 2-767) | 1 | 5.03 |  |  | 
28 | UBR5 (from UniProt O95071 2-2799) (enzyme) |  |  | 31 | 26 | 
29 | PRKDC (from UniProt P78527 1-4128) (enzyme) |  |  | 161 | 112 | 
30 | PRPS1 (from UniProt P60891 2-318) | 1.23 | 4.6 |  |  | 
31 | CCDC124 (from UniProt Q96CT7 1-223) | 1 | 5.03 |  |  | 
32 | EIF2C1 (from UniProt Q9UL18 1-857) | 1 | 5.16 |  |  | 
33 | AAMP (from UniProt Q13685 1-434) | 1 | 5.03 |  |  | 
34 | HECT, UBA and WWE domain containing 1 (Huwe1) protein, Q7Z6Z7 1-4374 | 1.5 | 5.56 | 279 | 122 | 
35 | MDN1 (from UniProt Q9NU22 1-5596) |  |  | 41 | 37 | 
36 | PRRC2C (from UniProt Q9Y520 1-2896) |  |  | 26 | 21 | 
37 | TCF3 (from UniProt P15923 1-654) | 3.16 | 5.57 |  |  | 
38 | GOLGB1 (from UniProt Q14789 1-3259) |  |  | 12 | 10 | 
39 | HECT, UBA and WWE domain containing 1 (Huwe1) protein |  |  |  |  | poly-ubiquitylation of Atoh1 after Huwe1 knockdown (shRNA) (FLAG-HA-Atoh1 [3]): decreased poly-ubiquitylation was observed after Huwe1 knockdown
40 | SERPINH1 (from UniProt P50454 19-418) | 1 | 3.92 |  |  | 
41 | NEK9 (from UniProt Q8TD19 2-979) (enzyme) | 2.83 | 5.54 |  |  | 
42 | CEP350 (from UniProt Q5VT06 1-3117) |  |  | 23 | 21 | 

Second part, led by results:

Row | D^N Score (FLAG-HA-Atoh1 [1]) | Z score (FLAG-HA-Atoh1 [1]) | Total peptide (FLAG-HA-Atoh1 [2]) | Unique peptide (FLAG-HA-Atoh1 [2]) | Substance | other results
43 | 2 | 5.71 |  |  | MAPK3 (from UniProt P27361 2-379) (enzyme) | 
44 | 1.58 | 5.48 |  |  | ZYX (from UniProt Q15942 2-572) | 
45 | 1.41 | 5.71 |  |  | PDE4D (from UniProt Q08499 1-809) | 
46 |  |  | 87 | 75 | DYNC1H1 (from UniProt Q14204 2-4646) | 
47 |  |  | 30 | 30 | UTRN (from UniProt P46939 1-3433) | 
48 | 1 | 5.03 |  |  | AHSA1 (from UniProt O95433 1-338) | 
49 |  |  | 15 | 14 | MAP1A (from UniProt P78559 1-2803) | 
50 | 2 | 5.71 |  |  | TNRC6C (from UniProt Q9HCJ0 1-1936) | 
51 |  |  | 133 | 78 | MAP1B (from UniProt P46821 2-2468) | 
52 | 2.58 | 4.36 |  |  | TUBB2B (from UniProt Q9BVA1 1-445) | 
53 |  |  | 79 | 46 | KIF11 (from UniProt P52732 1-1056) | 
54 |  |  | 26 | 26 | AKAP9 (from UniProt Q99996 1-3907) | 
55 | 1.41 | 5.71 |  |  | PDXK (from UniProt O00764 1-312) | 
56 | 3 | 3.77 |  |  | TUBA4A (from UniProt P68366 1-448) | 
57 |  |  | 22 | 20 | SON (from UniProt P18583 2-2426) | 
58 | 2 | 5.71 |  |  | NT5DC2 (from UniProt Q9H857 1-520) | 
59 |  |  | 13 | 12 | DMXL1 (from UniProt Q9Y485 1-3027) | 
60 | 1.41 | 5.71 |  |  | SRI (from UniProt P30626 1-198) | 
61 |  |  | 36 | 34 | HERC2 (from UniProt O95714 1-4834) (enzyme) | 
62 | 1.23 | 5.24 |  |  | SEC23A (from UniProt Q15436 2-765) | 
63 | 2 | 5.54 |  |  | CPOX (from UniProt P36551 111-454) | 

— patent publication US20190203210A1
